Test results: the supplement of paper PMC10724198
± gives the standard deviation of the averaged measurements.

Test system: Saccharomyces cerevisiae
Experiment: protein stability index of tFT-peptide fusion (C-terminal peptide) (PSI (0-1 scale)); higher = more stable (slower turnover)
Conditions: temperature: 30 C
Method: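 MPS profiling in S. cerevisiae of the yeast C-terminome library: the last 12 aa of each annotated ORF are fused to the C-terminus of a sfGFP-mCherry timer, after a GGGS linker. Cells are FACS-sorted into 8 mCherry/sfGFP bins and deep-sequenced. PSI runs from 0 (unstable) to 1 (stable); wild type and das1Δ backgrounds, two technical replicates each.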

[1] = genetic background: das1 deletion

Sequence | protein stability index [1] | protein stability index (genetic background: wild type)
MKTRLERERGLV [PTC4 C-terminal 12 aa] | 0.694 ± 0.027 | 0.638 ± 0.019
KGVIGTNPPITH [MPC3 C-terminal 12 aa] | 0.7045 ± 0.0018 | 0.719 ± 0.081
LMYIYQAFTTQD [GDT1 C-terminal 12 aa] | 0.684 ± 0.011 | 0.663 ± 0.036
YKELKDFIFAEK [GUK1 C-terminal 12 aa] | 0.692 ± 0.0077 | 0.727 ± 0.035
KFPLSVKKKIRI [YNR075C-A C-terminal 12 aa] | 0.6821 ± 0.0027 | 0.697 ± 0.066
EGDIEPLKRILK [UBP2 C-terminal 12 aa] | 0.706 ± 0.012 | 0.675 ± 0.088
RSNEEMYSWSRN [SPO74 C-terminal 12 aa] | 0.698 ± 0.039 | 0.692 ± 0.0082
EREKVDIHIPQV [BEM3 C-terminal 12 aa] | 0.711 ± 0.02 | 0.701 ± 0.011
SETIEELLKEVE [HYR1 C-terminal 12 aa] | 0.708 ± 0.0081 | 0.7 ± 0.015
KMIESLKSKLKE [CIN5 C-terminal 12 aa] | 0.693 ± 0.02 | 0.686 ± 0.027
GLSPIRYFIPQH [YNL114C C-terminal 12 aa] | 0.659 ± 0.017 | 0.6812 ± 0.0052
KGPSKTALLSKK [PKP1 C-terminal 12 aa] | 0.707 ± 0.021 | 0.711 ± 0.033
ETMGARLKIDGK [YJR149W C-terminal 12 aa] | 0.7079 ± 0.0065 | 0.689 ± 0.011
QSLKISKKRRRK [ZIP1 C-terminal 12 aa] | 0.734 ± 0.033 | 0.748 ± 0.086
SDELSRNFDSQG [VPS3 C-terminal 12 aa] | 0.705 ± 0.017 | 0.726 ± 0.015
DKKLARAGNNAI [CUE3 C-terminal 12 aa] | 0.695 ± 0.0092 | 0.769 ± 0.0094
RVYTEQNVPVVS [YNL194C C-terminal 12 aa] | 0.6679 ± 0.0046 | 0.684 ± 0.039
LKKEKLQALPTP [PDP3 C-terminal 12 aa] | 0.691 ± 0.00082 | 0.675 ± 0.011
WDGNLFVWNGLG [PEX7 C-terminal 12 aa] | 0.7335 ± 0.0029 | 0.4319 ± 0.0013
AHNFKVPETSKG [PAN2 C-terminal 12 aa] | 0.696 ± 0.032 | 0.677 ± 0.022
AFIFGNYKDILT [RGA1 C-terminal 12 aa] | 0.755 ± 0.01 | 0.7204 ± 0.0034

Sequence | protein stability index [1] | protein stability index (genetic background: wild type)
QNNNILNDMRVN [SPT23 C-terminal 12 aa] | 0.669 ± 0.011 | 0.689 ± 0.039
DKITAELILNKI [EMC2 C-terminal 12 aa] | 0.6872 ± 0.0017 | 0.6632 ± 0.0027
FGDCHLENSHLH [SPO75 C-terminal 12 aa] | 0.7041 ± 0.0012 | 0.719 ± 0.017
RRPSSTSQYLIR [CDC20 C-terminal 12 aa] | 0.692 ± 0.01 | 0.679 ± 0.038
HLSGSTIDTTVV [DSE1 C-terminal 12 aa] | 0.6624 ± 0.0029 | 0.685 ± 0.012
GQVIDPLKAPFK [UTP14 C-terminal 12 aa] | 0.6757 ± 0.0012 | 0.691 ± 0.043
PEVIDTRKDNSN [COX11 C-terminal 12 aa] | 0.687 ± 0.012 | 0.696 ± 0.022
QRVIKPSSALQF [ECM7 C-terminal 12 aa] | 0.706 ± 0.01 | 0.682 ± 0.035
DKPLYKRMFSTK [HXT6 C-terminal 12 aa] | 0.694 ± 0.022 | 0.7134 ± 0.0047
KLGLFRHIFSRK [LRE1 C-terminal 12 aa] | 0.691 ± 0.012 | 0.704 ± 0.01
TRGEATLRANYQ [YOR008W-B C-terminal 12 aa] | 0.6862 ± 0.003 | 0.73 ± 0.055
DKKKKKSKCVIL [RHO5 C-terminal 12 aa] | 0.753 ± 0.0091 | 0.74 ± 0.014
ALPLPDEDDADL [GSP1 C-terminal 12 aa] | 0.673 ± 0.02 | 0.715 ± 0.011
KKKKQIKNFQFG [YMR290W-A C-terminal 12 aa] | 0.687 ± 0.0087 | 0.656 ± 0.05
IGAPASGLRIRV [COP1 C-terminal 12 aa] | 0.693 ± 0.0074 | 0.69199 ± 5.7e-06
FRCKFKERKVDG [REP1 C-terminal 12 aa] | 0.682 ± 0.0088 | 0.674 ± 0.015
GKWYCDDCKKKL [PHO23 C-terminal 12 aa] | 0.729 ± 0.026 | 0.717 ± 0.048
ALKKAARQVKKE [IFA38 C-terminal 12 aa] | 0.71 ± 0.0074 | 0.6713 ± 0.0036
VACDSDSSSTIE [YEN1 C-terminal 12 aa] | 0.679 ± 0.016 | 0.699 ± 0.014
EDSKEYFEAANK [TSA1 C-terminal 12 aa] | 0.71 ± 0.021 | 0.704 ± 0.0061
DHIPLLTEFKIL [NGL1 C-terminal 12 aa] | 0.721 ± 0.036 | 0.188 ± 0.02

Sequence | protein stability index [1] | protein stability index (genetic background: wild type)
DPTTNGSIIKNE [IXR1 C-terminal 12 aa] | 0.6787 ± 0.0023 | 0.7014 ± 0.0049
CLGDSIVNLLLI [YGR259C C-terminal 12 aa] | 0.677 ± 0.011 | 0.3352 ± 0.0027
EVLAADNTRVPC [YLL067C C-terminal 12 aa] | 0.6968 ± 0.0039 | 0.677 ± 0.028
GNTENGTLKKKH [BSC5 C-terminal 12 aa] | 0.685 ± 0.0072 | 0.667 ± 0.037
IASQNSLGWNEV [MSB2 C-terminal 12 aa] | 0.69667 ± 0.00047 | 0.693 ± 0.024
WAVGGVELTTDI [GCN1 C-terminal 12 aa] | 0.76 ± 0.021 | 0.705 ± 0.026
AKFFIPFSHSSP [YPL185W C-terminal 12 aa] | 0.729 ± 0.01 | 0.705 ± 0.051
FLLVLFFICIIL [YOL014W C-terminal 12 aa] | 0.366 ± 0.013 | 0.3063 ± 0.0029
ICYTFKHLVSHK [FRT2 C-terminal 12 aa] | 0.691 ± 0.016 | 0.6574 ± 0.0033
MILKVSLECAVS [YDL009C C-terminal 12 aa] | 0.468 ± 0.0021 | 0.481 ± 0.016
PKGDIEASIAEE [MPH3 C-terminal 12 aa] | 0.6877 ± 0.00033 | 0.677 ± 0.016
RLEKEAKIKQEE [CDC11 C-terminal 12 aa] | 0.6967 ± 0.0039 | 0.678 ± 0.032
SIYILNVIRNAQ [YGR117C C-terminal 12 aa] | 0.6687 ± 0.0012 | 0.538 ± 0.0088
IKLEDAKGTHIK [RAD59 C-terminal 12 aa] | 0.695 ± 0.013 | 0.6411 ± 0.0032
GIVNFWSLEKAA [CIA1 C-terminal 12 aa] | 0.716 ± 0.012 | 0.633 ± 0.011
KLESSKNTSHEK [NFU1 C-terminal 12 aa] | 0.725 ± 0.0084 | 0.705 ± 0.0085
LMLGVAYYLLNE [CYB5 C-terminal 12 aa] | 0.624 ± 0.044 | 0.649 ± 0.048
PPFDFRLLFLLV [YGL165C C-terminal 12 aa] | 0.542 ± 0.033 | 0.269 ± 0.0091
PEKWSASLKKFK [THI6 C-terminal 12 aa] | 0.731 ± 0.017 | 0.6854 ± 0.0031
RDVLDDGSNIMS [IAH1 C-terminal 12 aa] | 0.6824 ± 0.0049 | 0.7 ± 0.0082
RLGLDWQPDSVS [MTH1 C-terminal 12 aa] | 0.695 ± 0.01 | 0.686 ± 0.039

Sequence | protein stability index [1] | protein stability index (genetic background: wild type)
VKKLLEIRSKSS [GTT2 C-terminal 12 aa] | 0.681 ± 0.0073 | 0.369 ± 0.0065
RAVTNRSSCSRR [YCR038W-A C-terminal 12 aa] | 0.697 ± 0.011 | 0.689 ± 0.0074
EPTKKGFLVCRM [YMR320W C-terminal 12 aa] | 0.771 ± 0.037 | 0.702 ± 0.05
LFSNVLSLSSNI [YGL007C-A C-terminal 12 aa] | 0.7296 ± 0.0024 | 0.695 ± 0.016
IEEMLEIISGYA [RPC17 C-terminal 12 aa] | 0.5664 ± 0.0013 | 0.584 ± 0.008
VLSFNPKVWLLV [YAR068W C-terminal 12 aa] | 0.562 ± 0.0081 | 0.0978 ± 0.0096
SRLKKEFEAAAL [IDP2 C-terminal 12 aa] | 0.6762 ± 0.0031 | 0.678 ± 0.085
ALDAEKYLTSLE [TRR1 C-terminal 12 aa] | 0.707 ± 0.0079 | 0.695 ± 0.031
VIDLDNSVAREV [MDL1 C-terminal 12 aa] | 0.7044 ± 0.0069 | 0.64 ± 0.007
KMKQRKLTPGDS [CMC4 C-terminal 12 aa] | 0.691 ± 0.018 | 0.65 ± 0.0073
MTKISILKPFLH [CDC6 C-terminal 12 aa] | 0.711 ± 0.0076 | 0.6156 ± 0.0052
AYIDTSIPNLLL [REG2 C-terminal 12 aa] | 0.707 ± 0.022 | 0.7067 ± 0.0067
KLAEHGAKKQKI [GCD10 C-terminal 12 aa] | 0.7217 ± 0.0024 | 0.659 ± 0.016
NMVNFESEKVNR [YVH1 C-terminal 12 aa] | 0.706 ± 0.02 | 0.662 ± 0.012
GKLLVPLVLYQI [YDR182W-A C-terminal 12 aa] | 0.673 ± 0.019 | 0.535 ± 0.0071
EALGKGGRGKRY [LSO1 C-terminal 12 aa] | 0.671 ± 0.013 | 0.678 ± 0.019
ILRILANSNDDN [BXI1 C-terminal 12 aa] | 0.699 ± 0.036 | 0.6562 ± 0.0062
LKLEQKIGELSK [CRN1 C-terminal 12 aa] | 0.679 ± 0.0071 | 0.718 ± 0.097
VRKLSFHVYEDE [ACM1 C-terminal 12 aa] | 0.6908 ± 0.001 | 0.658 ± 0.0079
